{"source": "patent US20110195494A1", "about": "(Boehringer Ingelheim, published 2011)", "binders": {"B1": {"name": "DLLBII17C01 (VHH)", "VHH": "EVQLVESGGGLVQAGGSLRLSCAASGFTFDDYPIGWLRQAPGKEREGVSCISSSDDSTYYADSVKGRFTISSNNAKNTVYLQMNSLKPEDTAVYYCAVRLFSGGCAVVAGTSWADFGSSGQGTQVTVSS", "notes": "tested as periplasmic extract; also called DLLBII17C1; not shown: C-terminal c-myc tag and His6 tag"}, "B2": {"name": "DLLBII83G01 (VHH)", "VHH": "EVQLVESGGGLVQAGGSLRLSCAASGRTFSNYIMGWFRQAPGKEREFVAGISRYADYTGYADSVKGRFTISRDNVKNTVYLRMNSLKPDDTAVYYCAANEGYCSGYGCYEDSGQYDYWGQGTQVTVSS", "notes": "tested as periplasmic extract; also called DLLBII83G1; not shown: C-terminal c-myc tag and His6 tag"}, "B3": {"name": "DLLBII17B03 (VHH)", "VHH": "EVQLVESGGGLVQPGGSLRLSCAASGFTFENYALGWFRQAPGKEREWVSCISSSDGTTYYADSVKGRFTISRDNVKNTVYLQMNRLKPEDTAIYYCALSLGSSWCAYDYWGQGTQVTVSS", "notes": "tested as periplasmic extract; also called DLLBII17B3; not shown: C-terminal c-myc tag and His6 tag"}, "B4": {"name": "DLLBII28B06 (VHH)", "VHH": "EVQLVESGGGLVQAGGSLRLSCAASGSTFSTYAMGWYRQDPGNQRELVAAISSDGSTHYADSVKGRFTISRDNAKNTVYLQMNSLKPEDTAVYYCYAPVKVAGLEYDYWGQGTQVTVSS", "notes": "tested as periplasmic extract; also called DLLBII28B6; not shown: C-terminal c-myc tag and His6 tag"}, "B5": {"name": "DLLBII17F10 (VHH)", "VHH": "EVQLVESGGGLVQAGGSLRLSCASSGRTLLNYAMGWFRQAPGKEREFVSGINWSGGSTYYADSVKGRFTISRDNAENTVYLHMNSLKPEDTAVYYCAAAHDNYWFTDDSLGRGLKYWGQGTQVTVSS", "notes": "not shown: C-terminal c-myc tag and His6 tag"}, "B6": {"name": "DLLBII19F12 (VHH)", "VHH": "EVQLVESGGGLVQAGGSLRLSCTASGSTFTSYAMGWYRQAPGKQRELVAAISSDDSTYYADCVKGRFTISRDNAKNTVYLQMNSLKPEDTAVYYCNAPHSDYDEEAPSDFGSWGQGTQVTVSS", "notes": "tested as periplasmic extract; not shown: C-terminal c-myc tag and His6 tag"}, "B7": {"name": "DLLBII19F04 (VHH)", "VHH": "EVQLVESGGGLVQAEGSLRLSCAASGSTFSTYAMAWYRQAPGKQRELVAGISFDGSTHYAESVKGRFTISRDDAKNTVSLQMNSLKPEDAAVYYCYSVHPSTGFGSWGQGTQVTVSS", "notes": "also called DLLBII19F4; not shown: C-terminal c-myc tag and His6 tag"}, "B8": {"name": "DLLBII104G01 (VHH)", "VHH": "EVQLVESGGGLVQAGGSLRLSCAASGFTFDDYAIGWFRQAPGKEREGVSCISSSDGSTYYADSVKGRFTISSDNAKNTVYLQMNSLKPEDTAVYYCATAWCDSSWYRSFVGYWGQGTQVTVSS", "notes": "also called DLLBII104G1; 104G1; not shown: C-terminal c-myc tag and His6 tag"}, "B9": {"name": "DLLBII17G10 (VHH)", "VHH": "EVQLVESGGGLVQAGGSLRLSCAASGSTFSSYAMGWYRHQAPGKQRELVAAISSDGSTHYADSVKGRFTISRDNAKNTMYLQMNSLKPEDTAVYYCNTKTFGSNWYDDYWGQGTQVTVSS", "notes": "as for B6"}}, "key": {"[1]": {"biological_target": "T1, recombinant human DLL4, C-terminally His-tagged extracellular domain (R&D Systems) (human, UniProt Q9NR61 25-522, biotinylated where used in competition ELISA, AlphaScreen and on SA chips)", "T1 construct": "also called rhDLL4; hDLL4; not shown: C-terminal His tag", "T1 sequence (Q9NR61 25-522)": "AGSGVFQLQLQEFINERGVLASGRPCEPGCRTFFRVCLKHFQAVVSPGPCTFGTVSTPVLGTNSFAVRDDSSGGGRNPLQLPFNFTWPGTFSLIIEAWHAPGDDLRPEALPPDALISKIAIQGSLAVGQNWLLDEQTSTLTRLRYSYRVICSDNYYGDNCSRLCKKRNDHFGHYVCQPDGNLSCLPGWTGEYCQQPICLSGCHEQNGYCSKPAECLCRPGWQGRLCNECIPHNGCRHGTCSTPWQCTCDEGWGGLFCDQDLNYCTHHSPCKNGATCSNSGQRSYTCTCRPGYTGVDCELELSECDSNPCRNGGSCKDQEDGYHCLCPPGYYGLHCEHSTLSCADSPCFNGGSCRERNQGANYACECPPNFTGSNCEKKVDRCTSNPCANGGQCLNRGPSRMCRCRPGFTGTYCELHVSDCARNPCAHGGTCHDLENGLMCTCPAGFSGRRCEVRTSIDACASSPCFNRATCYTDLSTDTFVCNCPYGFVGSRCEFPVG", "assay": "competition ELISA, periplasmic extract"}, "[2]": {"biological_target": "T1, recombinant human DLL4, C-terminally …", "assay": "hDLL4/hNotch1-Fc AlphaScreen, periplasmic extract", "method": "Periplasmic extracts are screened in a human DII4/human Notch1 AlphaScreen assay to assess the blocking capacity of the expressed VHHs. Human DII4 is biotinylated using biotin (Sigma, St Louis, Mo., USA) and biotinamidohexanoic acid 3-sulfo-N-hydroxysuccinimide ester sodium salt (Sigma, St Louis, Mo., USA). […] To evaluate the neutralizing capacity of the VHHs, dilution series of the periplasmic extracts are pre-incubated with biotinylated human DII4. To this mixture, the acceptor beads and the streptavidin donor beads are added and further incubated for 1 hour at room temperature. Fluorescence is measured by reading plates on the Envision Multilabel Plate reader (Perkin Elmer, Waltham, Mass., USA) using an excitation wavelength of 680 nm and an emission wavelength of 520 nm."}, "[3]": {"biological_target": "T2, full length mouse DLL4 on overexpressing CHO or HEK293 cells (mouse, UniProt Q9JI71 27-686)", "T2 construct": "whole, on cells; also called CHO-mDLL4; mDLL4", "T2 sequence (Q9JI71 27-686)": "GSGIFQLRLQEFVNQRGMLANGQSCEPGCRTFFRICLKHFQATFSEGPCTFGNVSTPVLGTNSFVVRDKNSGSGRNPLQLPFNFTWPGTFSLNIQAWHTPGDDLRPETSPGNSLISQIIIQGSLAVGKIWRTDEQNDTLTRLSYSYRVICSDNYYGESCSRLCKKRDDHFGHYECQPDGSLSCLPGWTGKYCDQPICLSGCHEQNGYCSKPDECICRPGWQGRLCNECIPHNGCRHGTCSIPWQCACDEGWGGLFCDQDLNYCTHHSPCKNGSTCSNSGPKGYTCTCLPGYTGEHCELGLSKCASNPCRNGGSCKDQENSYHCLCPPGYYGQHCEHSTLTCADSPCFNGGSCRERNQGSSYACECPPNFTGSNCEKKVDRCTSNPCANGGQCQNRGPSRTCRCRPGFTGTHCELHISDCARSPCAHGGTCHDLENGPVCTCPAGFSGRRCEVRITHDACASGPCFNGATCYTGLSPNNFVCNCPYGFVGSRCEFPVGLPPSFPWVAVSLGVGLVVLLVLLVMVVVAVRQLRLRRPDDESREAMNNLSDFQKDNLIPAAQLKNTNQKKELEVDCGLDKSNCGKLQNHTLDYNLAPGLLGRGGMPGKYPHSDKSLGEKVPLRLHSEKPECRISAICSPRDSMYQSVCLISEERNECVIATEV", "assay": "FMAT competition: labelled hNotch1/Fc on CHO-mDLL4 cells", "from_the_text": "(§1) All calculations are based on the FL1 total signal which comprises the average of the fluorescence per well times the number of counts per well."}, "[4]": {"biological_target": "T3, full length human DLL4 on overexpressing CHO or HEK293 cells (human, UniProt Q9NR61 27-685)", "T3 construct": "also called CHO-hDLL4; HEK293-hDII4", "T3 sequence (Q9NR61 27-685 limits assumed)": "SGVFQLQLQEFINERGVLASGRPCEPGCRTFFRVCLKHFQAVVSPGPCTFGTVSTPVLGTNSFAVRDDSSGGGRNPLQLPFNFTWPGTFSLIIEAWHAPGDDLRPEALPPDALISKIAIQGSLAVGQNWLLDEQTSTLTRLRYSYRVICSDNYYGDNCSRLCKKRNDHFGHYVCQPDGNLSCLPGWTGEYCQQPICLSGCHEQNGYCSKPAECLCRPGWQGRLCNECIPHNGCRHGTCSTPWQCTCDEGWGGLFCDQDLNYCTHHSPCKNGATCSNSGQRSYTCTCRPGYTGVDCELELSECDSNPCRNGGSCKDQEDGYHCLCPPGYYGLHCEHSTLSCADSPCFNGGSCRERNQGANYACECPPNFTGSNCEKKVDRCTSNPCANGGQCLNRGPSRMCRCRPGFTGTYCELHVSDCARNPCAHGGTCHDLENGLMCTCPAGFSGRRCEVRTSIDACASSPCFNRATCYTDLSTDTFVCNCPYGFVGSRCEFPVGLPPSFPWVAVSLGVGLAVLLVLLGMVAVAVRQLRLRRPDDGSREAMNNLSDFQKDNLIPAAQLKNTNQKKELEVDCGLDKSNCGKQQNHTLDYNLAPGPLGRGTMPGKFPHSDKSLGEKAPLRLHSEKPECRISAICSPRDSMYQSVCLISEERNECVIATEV", "assay": "FMAT, hNotch1/Fc on CHO-hDLL4, periplasmic extract", "from_the_text": "as §1"}, "[5]": {"biological_target": "T2, full length mouse DLL4 on …", "assay": "FMAT, hNotch1/Fc on CHO-mDLL4, periplasmic extract", "from_the_text": "as §1"}}}
{"binder": "B1", "values": [{"measurement": "ELISA hDLL4 % inhibition", "setting": "[1]", "result": 82, "unit": "%"}, {"measurement": "Alpha Screen hDLL4 % inhibition", "setting": "[2]", "result": 84, "unit": "%"}]}
{"binder": "B2", "values": [{"measurement": "IC50 (read off the curve)", "setting": "[3]", "result": "~50", "unit": "nM"}, {"measurement": "FMAT hDLL4 % inhibition", "setting": "[4]", "result": 87, "unit": "%"}, {"measurement": "FMAT mDLL4 % inhibition", "setting": "[5]", "result": 93, "unit": "%"}]}
{"binder": "B3", "values": [{"measurement": "ELISA hDLL4 % inhibition", "setting": "[1]", "result": 76, "unit": "%"}, {"measurement": "Alpha Screen hDLL4 % inhibition", "setting": "[2]", "result": 77, "unit": "%"}]}
{"binder": "B4", "values": [{"measurement": "ELISA hDLL4 % inhibition", "setting": "[1]", "result": 23, "unit": "%"}, {"measurement": "Alpha Screen hDLL4 % inhibition", "setting": "[2]", "result": 54, "unit": "%"}]}
{"binder": "B5", "values": [{"measurement": "ELISA hDLL4 % inhibition", "setting": "[1]", "result": 98, "unit": "%"}, {"measurement": "Alpha Screen hDLL4 % inhibition", "setting": "[2]", "result": 88, "unit": "%"}]}
{"binder": "B6", "values": [{"measurement": "ELISA hDLL4 % inhibition", "setting": "[1]", "result": 98, "unit": "%"}, {"measurement": "Alpha Screen hDLL4 % inhibition", "setting": "[2]", "result": 98, "unit": "%"}]}
{"binder": "B7", "values": [{"measurement": "ELISA hDLL4 % inhibition", "setting": "[1]", "result": 98, "unit": "%"}, {"measurement": "Alpha Screen hDLL4 % inhibition", "setting": "[2]", "result": 95, "unit": "%"}]}
{"binder": "B8", "values": [{"measurement": "IC50 (read off the curve)", "setting": "[3]", "result": "64 to 70", "unit": "nM"}, {"measurement": "FMAT hDLL4 % inhibition", "setting": "[4]", "result": 94, "unit": "%"}, {"measurement": "FMAT mDLL4 % inhibition", "setting": "[5]", "result": 86, "unit": "%"}]}
{"binder": "B9", "values": [{"measurement": "ELISA hDLL4 % inhibition", "setting": "[1]", "result": 93, "unit": "%"}, {"measurement": "Alpha Screen hDLL4 % inhibition", "setting": "[2]", "result": 82, "unit": "%"}]}
